Results on 14 molecules are retold here after US20200308270A1 (Zymeworks, published 2020).

Numbering of substitutions follows the chain as printed. A value given as a limit tells only on which side of the number the result lay.

One assay concerns the target T1, human recombinant FcRn (human, UniProt P55899 24-297; P61769 21-119, limits assumed).
T1 construct: also called neonatal receptor
In words: SPR (ProteOn), FcRn immobilized, Mab analyte, pH 5.8.

Assay [1] has as its target T2, recombinant human HER3 (human, UniProt P21860 20-643).
T2 construct: Bought reagent
The assay is described as follows: SPR (ProteOn), Mab captured via anti-human Fc, HER3 analyte.
Method: HER3 affinity determination in Mabs was carried out as follows. The screening of Mabs for binding to HER3 antigen occurred in two steps: an indirect capture of Mabs onto the anti-human Fc-specific polyclonal antibody surface, followed by the injection of five concentrations of HER3. The anti-human Fc surface was prepared on a GLC sensorchip by amine coupling. GLC sensorchip surface was activated by a 1:10 dilution of the standard BioRad sNHS/EDC solutions injected for 140s at 100 pt/min in the analyte (horizontal) direction. Immediately after the activation, 25 microg/mL solution of anti-human Fc in 10 mM NaOAc pH 4.5 was injected in the ligand (vertical) direction at a flow rate of 25 microL/min for 240s until approximately 3000 resonance units (RUs) were immobilized. Remaining active groups were quenched by a 140s injection of 1M ethanolamine at 100 μL/min also in the analyte direction. Mabs for analysis were indirectly captured onto the anti-Fc surface by injecting 20 microg/mL solutions in the ligand (vertical) direction at a flow rate of 25 microL/min for 240s. HER3 was subsequently injected in the analyte (horizontal) direction. Firstly, two buffer injections for 30s at 100 microL/min in the analyte (horizontal) direction were used to stabilize the baseline. […] Sensorgrams were aligned and double-referenced using the buffer blank injection and interspots, and the resulting sensorgrams were analyzed using ProteOn Manager software v3.1. The double-referenced sensorgrams were fit to the Langmuir binding model.

Assay [2] deals with T3, human recombinant FcgammaR receptor CD32aR (human, UniProt P12318 34-217, limits assumed).
T3 sequence (looked up): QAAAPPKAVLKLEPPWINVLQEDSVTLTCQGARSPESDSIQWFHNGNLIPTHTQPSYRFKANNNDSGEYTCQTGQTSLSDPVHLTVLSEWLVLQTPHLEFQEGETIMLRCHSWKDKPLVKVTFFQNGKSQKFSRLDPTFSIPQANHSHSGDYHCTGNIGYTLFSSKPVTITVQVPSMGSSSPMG
In words: SPR (ProteOn), Mab captured via anti-human Fc, FcgammaR analyte.
Method: (§1) Goat polyclonal anti-human Fc antibody was purchased from Jackson Immuno Research Laboratories Inc. (West Grove, Pa.). […] Human recombinant FcγR receptors: CD16aV, CD32bF, CD32aR, and CD32aH were expressed as constructs containing a His10-tag at the C-terminus and purified by Ni-affinity chromatography followed by His-tag removal and SEC purification.
(§2) FcγR affinity determination was carried out as follows. The screening of Mabs for binding to various FcγR receptors occurred in two steps: an indirect capture of Mab samples onto the anti-human Fc-specific polyclonal antibody surface, followed by the injection of five concentrations of each of FcγR receptors. The anti-human Fc surface was prepared on a GLC sensorchip by amine coupling. GLC sensorchip surface was activated by a 1:10 dilution of the standard BioRad sNHS/EDC solutions injected for 140s at 100 μL/min in the analyte (horizontal) direction. Immediately after the activation, 25 microg/mL solution of anti-human Fc in 10 mM NaOAc pH 4.5 was injected in the analyte direction at a flow rate of 25 microL/min for 240s until approximately 4500 or 2500 resonance units (RUs) were immobilized. Remaining active groups were quenched by a 300s injection of 1M ethanolamine at 30 μL/min also in the analyte direction. Mabs for analysis were indirectly captured onto the anti-human Fc surface by injecting 10 microg/ml solutions in the ligand (vertical) direction at a flow rate of 25 microL/min for 240s. Each of the FcγR receptors was subsequently injected in the analyte (horizontal) direction. Firstly, two buffer injections for 30s at 100 microL/min in the analyte (horizontal) direction were used to stabilize the baseline. Five concentrations of a three-fold dilution series of each of the four FcγR receptors starting at 10 μM with a blank buffer control were then simultaneously injected at 50 microL/min for 120 s with a 3 minute dissociation phase, resulting in a set of binding sensorgrams with a buffer reference. […] Sensorgrams were aligned and double-referenced using the buffer blank injection and interspots, and the resulting sensorgrams were analyzed using ProteOn Manager software v3.1.

The target in assay [3] is human recombinant FcgammaR receptor CD16aV (human, UniProt P08637 17-208, limits assumed). Described as above.
Method: as §1, §2
For assay [4], the target named is T2, recombinant human HER3. In words: SPR.
Assay [5] has as its target T4, recombinant human sFas receptor (human, UniProt P25445 17-173, limits assumed).
T4 construct: Bought reagent
T4 sequence (looked up): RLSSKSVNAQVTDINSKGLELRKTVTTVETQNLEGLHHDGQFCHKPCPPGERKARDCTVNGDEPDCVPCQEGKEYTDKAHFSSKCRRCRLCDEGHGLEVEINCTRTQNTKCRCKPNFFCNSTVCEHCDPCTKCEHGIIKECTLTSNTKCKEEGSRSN
In words: SPR (Biacore T200), Fas immobilized, Fab analyte.
Method: Fas affinity determination was carried out as follows. Fas was diluted in 10 mM acetate buffer pH 5.5 and directly immobilized via amine coupling onto a CMS Series S sensor chip. […] The reference flow cell was left empty (ethanolamine blocked) to use as a blank control. Fabs were injected over both the ethanolamine-blocked reference surface and the Fas surface for kinetic analysis using single cycle kinetics. […] Fas surfaces were regenerated using 2 cycles of 10 mM glycine pH 1.5 for 120 s at 30 pt/min to prepare the surfaces for the next injection cycle. At least two mock-buffer injections were performed for each analyte injection to be used for referencing. The resulting single cycle kinetics sensorgrams were analyzed using Biacore T200 BiaEvaluation software version 3.0 and fit to the 1:1 binding model.

Sequence of human recombinant FcgammaR receptor CD16aV (P08637 17-208 F176V limits assumed): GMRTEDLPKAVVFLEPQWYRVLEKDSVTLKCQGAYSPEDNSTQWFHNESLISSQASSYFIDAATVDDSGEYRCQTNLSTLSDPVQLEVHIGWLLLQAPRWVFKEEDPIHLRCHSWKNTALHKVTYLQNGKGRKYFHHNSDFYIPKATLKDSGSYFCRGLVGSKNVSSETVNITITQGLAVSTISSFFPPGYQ
T1 sequence (P55899 24-297 limits assumed, chain 1 of 2): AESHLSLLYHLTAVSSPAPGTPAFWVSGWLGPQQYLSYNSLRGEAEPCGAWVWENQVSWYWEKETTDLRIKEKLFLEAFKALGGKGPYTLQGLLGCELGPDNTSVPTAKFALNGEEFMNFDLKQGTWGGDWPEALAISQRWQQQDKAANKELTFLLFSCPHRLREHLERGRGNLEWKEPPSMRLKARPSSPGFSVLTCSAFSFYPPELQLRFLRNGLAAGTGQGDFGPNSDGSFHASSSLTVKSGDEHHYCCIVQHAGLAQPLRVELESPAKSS
T1 sequence (P61769 21-119 limits assumed, chain 2 of 2): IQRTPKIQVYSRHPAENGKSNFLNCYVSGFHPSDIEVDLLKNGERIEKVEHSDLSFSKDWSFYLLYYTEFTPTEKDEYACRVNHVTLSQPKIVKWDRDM
Method for human recombinant FcRn: FcRn affinity determination was carried out as follows. FcRn surface was generated using a GLC sensorchip activated by a 1:10 dilution of the standard BioRad sNHS/EDC solutions injected for 140s at 100 μL/min in the ligand (vertical) direction. Immediately after the activation, 10 microg/mL solution of FcRn in 10 mM NaOAc pH 4.5 was injected in the ligand (vertical) direction at a flow rate of 25 microL/min for 120s until approximately 2000 resonance units (RUs) were immobilized. Remaining active groups were quenched by a 140s injection of 1M ethanolamine at 30 μL/min also in the ligand direction. The running buffer used on the FcRn surface was PBST pH 5.8. The screening of the Mabs for binding to FcRn was performed by injection of purified Mabs in the analyte (horizontal) direction. Firstly, two buffer injections for 30s at 100 microL/min in the analyte (horizontal) direction were used to stabilize the baseline. Five concentrations of a three-fold dilution series of each Mab starting at 100 nM with a blank buffer control were simultaneously injected at 50 microL/min for 120 s with a 10 minute dissociation phase, resulting in a set of binding sensorgrams with a buffer reference. […] Sensorgrams were aligned and double-referenced using the buffer blank injection and interspots, and the resulting sensorgrams were analyzed using ProteOn Manager software v3.1. The double-referenced sensorgrams were fit to the Langmuir binding model.

B1: H3 designed Vlambda-Ckappa chimeric Mab, design 37 (E83A_D85T) (antibody, human IgG1, kappa, name in Kabat numbering)
heavy: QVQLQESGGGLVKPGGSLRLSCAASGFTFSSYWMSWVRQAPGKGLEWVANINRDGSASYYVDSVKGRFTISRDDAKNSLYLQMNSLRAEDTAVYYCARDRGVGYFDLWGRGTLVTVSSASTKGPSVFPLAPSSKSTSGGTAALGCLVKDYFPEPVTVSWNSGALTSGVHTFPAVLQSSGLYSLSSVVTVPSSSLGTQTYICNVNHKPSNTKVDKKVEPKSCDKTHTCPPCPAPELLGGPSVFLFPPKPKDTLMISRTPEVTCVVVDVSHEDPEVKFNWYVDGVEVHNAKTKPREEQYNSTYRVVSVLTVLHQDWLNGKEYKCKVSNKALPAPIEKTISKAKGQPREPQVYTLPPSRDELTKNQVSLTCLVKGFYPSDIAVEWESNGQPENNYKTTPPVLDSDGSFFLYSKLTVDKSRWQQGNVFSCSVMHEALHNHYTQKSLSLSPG
light: QSALTQPASVSGSPGQSITISCTGTSSDVGGYNFVSWYQQHPGKAPKLMIYDVSDRPSGVSDRFSGSKSGNTASLIISGLQADDAATYYCSSYGSSSTHVIFGGGTKVTVLRTVAAPSVFIFPPSDEQLKSGTASVVCLLNNFYPREAKVQWKVDNALQSGNSQESVTEQDSKDSTYSLSSTLTLSKADYEKHKVYACEVTHQGLSSPVTKSFNRGEC
notes: IgG1 Mab format
With B1, the Kd in the assay with human recombinant FcRn stood at 80.2 nM; with recombinant human HER3 [1], 67 nM; in assay [2], 3.4 µM; in assay [3], 1300 nM.

B2: H3 designed Vlambda-Ckappa chimeric Mab, design 39 (E83A_D85T_T105E_V106I) (antibody, human IgG1, kappa, name in Kabat numbering)
heavy: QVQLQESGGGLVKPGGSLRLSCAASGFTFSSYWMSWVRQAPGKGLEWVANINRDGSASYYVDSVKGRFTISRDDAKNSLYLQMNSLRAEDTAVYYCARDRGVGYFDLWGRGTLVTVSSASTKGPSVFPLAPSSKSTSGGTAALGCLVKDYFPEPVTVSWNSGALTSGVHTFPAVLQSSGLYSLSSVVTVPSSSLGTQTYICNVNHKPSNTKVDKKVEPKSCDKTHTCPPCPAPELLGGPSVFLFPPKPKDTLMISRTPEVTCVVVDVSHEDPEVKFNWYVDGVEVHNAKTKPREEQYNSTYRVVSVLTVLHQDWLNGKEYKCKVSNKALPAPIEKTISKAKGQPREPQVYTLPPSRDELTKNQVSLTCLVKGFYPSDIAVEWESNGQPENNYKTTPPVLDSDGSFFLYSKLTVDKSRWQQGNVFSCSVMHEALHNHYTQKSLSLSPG
light: B1 light with T109E, V110I
notes: IgG1 Mab format
Turning to B2, the dissociation constant (Kd) in the assay with human recombinant FcRn was found to be 96.7 nM; with recombinant human HER3 [1], 61 nM; in assay [2], 3.1 µM; in assay [3], 1400 nM.

B3: H3 Vlambda-Ckappa chimeric Mab (antibody, human IgG1, kappa)
heavy: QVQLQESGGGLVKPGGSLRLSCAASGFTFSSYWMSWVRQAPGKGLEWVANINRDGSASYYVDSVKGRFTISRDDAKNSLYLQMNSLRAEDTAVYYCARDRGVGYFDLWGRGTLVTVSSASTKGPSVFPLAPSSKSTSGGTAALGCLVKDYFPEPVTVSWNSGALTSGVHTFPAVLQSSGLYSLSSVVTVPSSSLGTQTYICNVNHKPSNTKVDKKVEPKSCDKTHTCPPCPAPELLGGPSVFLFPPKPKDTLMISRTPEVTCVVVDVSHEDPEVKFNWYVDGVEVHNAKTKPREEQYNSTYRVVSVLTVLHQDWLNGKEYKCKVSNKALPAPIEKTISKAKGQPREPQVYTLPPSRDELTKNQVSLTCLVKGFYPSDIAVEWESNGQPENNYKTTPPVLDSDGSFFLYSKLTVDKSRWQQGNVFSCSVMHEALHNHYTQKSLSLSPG
light: B1 light with A85E, T87D
notes: IgG1 Mab format; chimeric light chain without stabilizing substitutions; also called chimera
For B3, the “fold difference of KD against the wild-type lambda Mab control” value with recombinant human HER3 [4] is ≤ 1.5 fold. In addition, the equilibrium dissociation constant (Kd) in the assay with human recombinant FcRn is 74.6 nM; with recombinant human HER3 [1] it was 63 nM; in assay [2] it was 4.1 µM; in assay [3], 1200 nM.

B4: H3 designed Vlambda-Ckappa chimeric Mab, design 29 (E83V_D85T_T105E_V106I) (antibody, human IgG1, kappa, name in Kabat numbering)
heavy: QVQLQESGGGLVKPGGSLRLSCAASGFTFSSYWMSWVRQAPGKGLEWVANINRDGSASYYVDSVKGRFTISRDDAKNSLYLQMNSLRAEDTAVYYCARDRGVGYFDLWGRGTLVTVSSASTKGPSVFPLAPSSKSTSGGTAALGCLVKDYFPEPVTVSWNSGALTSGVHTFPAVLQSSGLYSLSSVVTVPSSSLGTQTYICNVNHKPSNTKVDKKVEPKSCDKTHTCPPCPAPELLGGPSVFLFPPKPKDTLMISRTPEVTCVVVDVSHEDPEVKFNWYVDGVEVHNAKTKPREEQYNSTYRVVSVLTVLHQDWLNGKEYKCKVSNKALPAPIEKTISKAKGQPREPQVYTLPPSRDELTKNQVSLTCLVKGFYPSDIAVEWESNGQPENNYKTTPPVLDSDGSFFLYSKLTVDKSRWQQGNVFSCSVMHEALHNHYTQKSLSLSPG
light: B1 light with A85V, T109E, V110I
notes: IgG1 Mab format
As to B4, the Kd in the assay with human recombinant FcRn was determined as 86.1 nM; with recombinant human HER3 [1], 64 nM; in assay [2], 4.9 µM; in assay [3] it was 1100 nM.

B5: H3 designed Vlambda-Ckappa chimeric Mab, design 34 (E83I_D85T_T105E_V106I) (antibody, human IgG1, kappa, name in Kabat numbering)
heavy: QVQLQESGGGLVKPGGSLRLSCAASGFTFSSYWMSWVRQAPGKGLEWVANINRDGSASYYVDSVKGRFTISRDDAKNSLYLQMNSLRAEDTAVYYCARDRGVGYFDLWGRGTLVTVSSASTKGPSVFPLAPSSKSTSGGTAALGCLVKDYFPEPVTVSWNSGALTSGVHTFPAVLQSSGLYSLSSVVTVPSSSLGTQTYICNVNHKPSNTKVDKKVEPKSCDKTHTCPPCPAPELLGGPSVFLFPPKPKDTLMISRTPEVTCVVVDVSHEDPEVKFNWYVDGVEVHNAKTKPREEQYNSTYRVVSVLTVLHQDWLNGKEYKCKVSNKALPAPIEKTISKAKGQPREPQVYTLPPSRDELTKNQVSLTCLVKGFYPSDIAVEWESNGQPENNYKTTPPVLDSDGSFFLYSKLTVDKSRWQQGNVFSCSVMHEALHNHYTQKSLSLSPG
light: B1 light with A85I, T109E, V110I
notes: IgG1 Mab format
In the case of B5, in the assay with recombinant human HER3 [1], the Kd came to 60 nM.

B6: H3 wild-type lambda Mab (antibody, human IgG1, lambda)
heavy: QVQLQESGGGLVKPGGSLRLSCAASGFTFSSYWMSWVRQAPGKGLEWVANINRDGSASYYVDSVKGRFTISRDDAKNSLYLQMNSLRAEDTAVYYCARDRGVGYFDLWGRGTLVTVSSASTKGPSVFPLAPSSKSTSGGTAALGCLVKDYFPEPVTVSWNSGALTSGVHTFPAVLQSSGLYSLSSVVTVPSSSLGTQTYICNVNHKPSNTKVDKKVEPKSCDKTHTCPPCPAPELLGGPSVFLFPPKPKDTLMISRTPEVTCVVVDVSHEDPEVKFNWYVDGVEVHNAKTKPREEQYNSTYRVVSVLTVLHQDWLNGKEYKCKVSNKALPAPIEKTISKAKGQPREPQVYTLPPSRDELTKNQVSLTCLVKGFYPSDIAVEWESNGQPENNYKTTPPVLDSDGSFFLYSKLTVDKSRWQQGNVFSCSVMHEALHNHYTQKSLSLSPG
light: QSALTQPASVSGSPGQSITISCTGTSSDVGGYNFVSWYQQHPGKAPKLMIYDVSDRPSGVSDRFSGSKSGNTASLIISGLQADDEADYYCSSYGSSSTHVIFGGGTKVTVLGQPKAAPSVTLFPPSSEELQANKATLVCLISDFYPGAVTVAWKADSSPVKAGVETTTPSKQSNNKYAASSYLSLTPEQWKSHRSYSCQVTHEGSTVEKTVAPTECS
notes: IgG1 Mab format; also called WT
B6: the Kd was 48.6 nM in the assay with human recombinant FcRn, 85 nM with recombinant human HER3 [1], 3.4 µM in assay [2] and 1100 nM in assay [3].

B7: EP6b_B01 Vlambda-Ckappa chimeric Fab (Fab, V domains shown)
VH: QLQLQESGPGLVKPSETLSLTCTVSGASISANSYYGVWVRQSPGKGLEWVGSIAYRGNSNSGSTYYNPSLKSRATVSVDSSKNQVSLRLTSVTAADTALYYCARRQLLDDGTGYQWAAFDVWGQGTMVTVSS
VL: QSVLTQPPSVSEAPRQTVTISCSGNSSNIGRYPVNWYQQLPGKAPKLLIYSDNLRFSGVPDRFSGSKSGTTASLAIRDLLSEDEADYYCSTWDDTLEGWVFGGGTKVTVLR
notes: Parent chimeric Fab without stabilizing substitutions; also called chimera; VL-CK chimeric Fab
For B7, the Kd in assay [5] was found to be 0.0512 nM.

B8: EP6b_B01 wild-type lambda Fab (Fab, V domains shown)
VH: B7 VH
VL: B7 VL with R111G
notes: Truncated heavy chain (VH-CH1-upper IgG1 hinge, no His tag) and wild-type lambda light chain; also called WT
Regarding B8, in assay [5], the Kd is 0.0546 nM.

B9: EP6b_B01 designed Vlambda-Ckappa chimeric Fab, design 34 (E83I_D85T_T105E_V106I) (Fab, name in Kabat numbering, V domains shown)
VH: B7 VH
VL: B7 VL with E84I, D86T, T108E, V109I
In the case of B9, the Kd in assay [5] was determined as 0.0484 nM.

B10: EP6b_B01 designed Vlambda-Ckappa chimeric Fab, design 29 (E83V_D85T_T105E_V106I) (Fab, name in Kabat numbering, V domains shown)
VH: B7 VH
VL: B7 VL with E84V, D86T, T108E, V109I
Consider B10, for which the Kd in assay [5] stood at 0.0479 nM.

B11: EP6b_B01 designed Vlambda-Ckappa chimeric Fab, design 26 (E83V_D85T) (Fab, name in Kabat numbering, V domains shown)
VH: B7 VH
VL: B7 VL with E84V, D86T
On to B11, for which the Kd in assay [5] is 0.0486 nM.

B12: EP6b_B01 designed Vlambda-Ckappa chimeric Fab, design 32 (E83I_D85T) (Fab, name in Kabat numbering, V domains shown)
VH: B7 VH
VL: B7 VL with E84I, D86T
On to B12, for which the Kd in assay [5] came to 0.0471 nM.

B13: EP6b_B01 designed Vlambda-Ckappa chimeric Fab, design 18 (E83F_D85T_T105E) (Fab, name in Kabat numbering, V domains shown)
VH: B7 VH
VL: B7 VL with E84F, D86T, T108E
In the case of B13, the equilibrium dissociation constant (Kd) in assay [5] was 0.0449 nM.

B14: EP6b_B01 designed Vlambda-Ckappa chimeric Fab, design 37 (E83A_D85T) (Fab, name in Kabat numbering, V domains shown)
VH: B7 VH
VL: B7 VL with E84A, D86T
B14: in assay [5], the Kd was 0.0492 nM.
